Key:
[1] = biological target: adenylyl cyclase (AC) in rat dorsal root ganglia (DRG) lysates (rat); assay: cell-based or functional assay
[2] = biological target: adenylyl cyclase (AC) in rat spinal cord lysates / membrane preparations (rat); assay: cell-based or functional assay

inhibition of Gαs-stimulated AC activity, DRG lysates, 30 nM PAM [1]: 32%
inhibition of Gαs-stimulated AC activity, spinal cord lysates of animals treated for 1 hour with formalin, 30 nM PAM [2]: 25%
inhibition of Gαs-stimulated AC activity, spinal cord lysates of control animals, 30 nM PAM [2]: 49%
inhibition of Gαs-stimulated AC activity, spinal cord lysates of rats 96 hours after zymosan injection, 30 nM PAM [2]: 70%
Substance: Protein Associated with Myc (PAM), human, full length, purified from HeLa cells (from UniProt O75592 1-4678)

Source: US20050032744A1
